The values below come from patent US20090291081A1 (AbbVie / Abbott, published 2009).

The term IC50 denotes the point on the concentration scale where inhibition reaches its midpoint. Low readings indicate greater potency, high ones weaker potency.

Sequences and labels used below:
B1: ABT2-65-29 (other)
VH: EVQLLESGGGLVQPGGSLRLSCAASGFTFEDYQMGWVRQAPGKGLEWVSSISAMGNRTYYADSVKGRFTISRDDSKNTLYLQMNSLRAEDTAVYYCAQNLVLVRVGWWMFDYWGQGTLVTVSS
notes: VH dAb
B2: ABT2-65-138 (other)
VH: B1 VH with Q98E, L102R, R104T, V105A, G106R, W107K
notes: VH dAb
B3: ABT2-65-158 (other)
VH: B1 VH with L102K, V103W, R104K, V105R, G106D, W107F
notes: VH dAb
B4: ABT2-65-169 (other)
VH: B1 VH with Q98E, L102N, V103W, V105R, W107S
notes: VH dAb
B5: ABT2-65-130 (other)
VH: B1 VH with A23V, G55V, L102R, V103L, R104G, V105R, G106S, W107R
notes: VH dAb
B6: ABT2-65-76 (other)
VH: B1 VH with A23V, S49T, L102R, V103L, R104G, V105R, G106S, W107R
notes: VH dAb
B7: ABT2-65-37 (other)
VH: B1 VH with E30A, L102R, V103T, R104Q, V105S, G106K, W107M
notes: VH dAb
B8: ABT2-65-167 (other)
VH: B1 VH with L102R, V103W, R104K, V105K, G106N, W107E
notes: VH dAb
B9: ABT2-65-39 (other)
VH: B1 VH with Q98G, L102R, V103T, R104Q, V105S, G106K, W107M
notes: VH dAb
B10: ABT2-65-174 (other)
VH: B1 VH with L102R, V103F, R104K, V105K, G106T, W107Q
notes: VH dAb
B11: ABT2-65-144 (other)
VH: B1 VH with Q98E, L102R, V103I, R104S, V105K, G106K, W107Q
notes: VH dAb
B12: ABT2-65-49 (other)
VH: B1 VH with E1G, L102R, V103T, R104Q, V105S, G106K, W107M
notes: VH dAb
B13: ABT2-65-141 (other)
VH: B1 VH with Q98E, L102R, V103I, R104K, V105Q, G106T, W107K
notes: VH dAb
B14: ABT2-65-125 (other)
VH: B1 VH with A23V, V48I, L102R, V103L, R104G, V105R, G106S, W107R
notes: VH dAb
B15: ABT2-65-38 (other)
VH: B1 VH with S71Y, L102R, V103T, R104Q, V105S, G106K, W107M
notes: VH dAb
B16: ABT2-65-133 (other)
VH: B1 VH with Q98E, L102H, V103W, R104K, V105R, W107G
notes: VH dAb
B17: ABT2-65-145 (other)
VH: B1 VH with Q98E, L102R, V103I, R104Q, V105K, G106V, W107K
notes: VH dAb
B18: ABT2-65-120 (other)
VH: B1 VH with A23V, N56M, L102R, V103L, R104G, V105R, G106S, W107R
notes: VH dAb
B19: ABT2-65-146 (other)
VH: B1 VH with Q98E, L102R, V103T, R104M, V105K, G106R, W107K
notes: VH dAb
B20: ABT2-65-87 (other)
VH: B1 VH with A23V, G44D, L102R, V103L, R104G, V105R, G106S, W107R
notes: VH dAb
B21: ABT2-65-137 (other)
VH: B1 VH with Q98E, L102R, V103T, R104A, V105K, G106R, W107R
notes: VH dAb
B22: ABT2-65-171 (other)
VH: B1 VH with L102R, V103L, R104N, V105R, G106S, W107Q
notes: VH dAb
B23: ABT2-65-131 (other)
VH: B1 VH with G15R, A23V, A53T, Y95H, L102R, V103L, R104G, V105R, G106S, W107R
notes: VH dAb
B24: ABT2-65-173 (other)
VH: B1 VH with L102R, V103F, V105A, G106K, W107E
notes: VH dAb
B25: ABT2-65-139 (other)
VH: B1 VH with L102R, G106R, W107R
notes: VH dAb
B26: ABT2-65-83 (other)
VH: B1 VH with A23V, L86Q, L102R, V103L, R104G, V105R, G106S, W107R
notes: VH dAb
B27: ABT2-65-117 (other)
VH: B1 VH with Q13R, A23V, V48I, L102R, V103L, R104G, V105R, G106S, W107R
notes: VH dAb
B28: ABT2-65-135 (other)
VH: B1 VH with Q98E, L102R, V103I, R104K, V105K, G106M, W107K
notes: VH dAb
B29: ABT2-65-32 (other)
VH: B1 VH with L102A, R104S, V105R, W107R
notes: VH dAb
B30: ABT2-65-151 (other)
VH: B1 VH with Q98E, L102R, V103W, V105K, G106H, W107A
notes: VH dAb
B31: ABT2-65-129 (other)
VH: B1 VH with A23V, S50T, I51V, V64M, L102R, V103L, R104G, V105R, G106S, W107R
notes: VH dAb
B32: ABT2-65-46 (other)
VH: EVQLLESGGGLVQPGGSLRLSCAASGFTFEDYQMGWVRQAPGKGLEWVSSISAMGNRTYYADSVKGRFTISRDDSKNTLYLQMNSLRAEDTAVYYCAKWLTRTQSKLGYFDYWGQGTLVTVSS
notes: VH dAb
B33: ABT2-65-156 (other)
VH: B1 VH with L102R, V103I, R104G, V105R, G106N, W107K
notes: VH dAb
B34: ABT2-65-148 (other)
VH: B1 VH with L102R, V103L, R104G, V105S, G106K, W107R
notes: VH dAb
B35: ABT2-65-126 (other)
VH: EVQLLESGGGLVQPGGSLRISCVTSGFTFEDYQMGWVRQAPGKGLEWVSSISAMGNRTYYADSVKGRFTISRDDSKNTLNLQMNSLRAEDTAVYYCAQNLVRLGRSRWVFDYWGQGTLVTVSS
notes: VH dAb
B36: ABT2-65-114 (other)
VH: B35 VH with I20L, V23A, T24A, E30R, D31E, Q33M, N80Y, V109M
notes: VH dAb
B37: ABT2-65-168 (other)
VH: B1 VH with L102R, V103W, R104K, V105L, G106E, W107S
notes: VH dAb
B38: ABT2-65-78 (other)
VH: B35 VH with I20L, T24A, N80Y, R105T, V109M, T117A
notes: VH dAb
B39: ABT2-65-170 (other)
VH: B1 VH with Q98E, L102R, R104L, V105L, G106N, W107K
notes: VH dAb
B40: ABT2-65-30 (other)
VH: B1 VH with Q3R, L102R, V103L, R104N, V105R, G106R, W107D
notes: VH dAb
B41: ABT2-65-90 (other)
VH: B35 VH with I20L, T24A, L45Q, N80Y, V109M, Q115H
notes: VH dAb
B42: ABT2-65-121 (other)
VH: B35 VH with I20L, T24A, S52A, M54H, N80Y, V109M
notes: VH dAb
B43: ABT2-65-172 (other)
VH: B1 VH with Q98E, L102R, V103W, R104K, V105K, W107S
notes: VH dAb
B44: ABT2-65-159 (other)
VH: B1 VH with Q98E, L102R, R104S, V105K, G106A, W107R
notes: VH dAb
B45: ABT2-65-84 (other)
VH: B35 VH with I20L, T24A, T28S, G42R, V48I, N80Y, V109M
notes: VH dAb
B46: ABT2-65-31 (other)
VH: B1 VH with L102K, V103I, R104M, V105R, G106L, W107K
notes: VH dAb
B47: ABT2-65-33 (other)
VH: B1 VH with L102R, V103Y, R104M, V105K, G106S, W107Q
notes: VH dAb
B48: ABT2-65-132 (other)
VH: B1 VH with Q98E, L102R, V103L, R104A, V105S, G106R, W107R
notes: VH dAb
B49: ABT2-65-75 (other)
VH: B35 VH with P14H, I20L, T24A, N80Y, R105K, V109M
notes: VH dAb
B50: ABT2-65-124 (other)
VH: B35 VH with I20L, T24A, M54V, N80Y, T91I, V109M
notes: VH dAb
B51: ABT2-65-149 (other)
VH: B1 VH with Q98E, L102R, R104D, V105R, G106R, W107R
notes: VH dAb
B52: ABT2-65-152 (other)
VH: B1 VH with Q98E, L102R, V103W, R104K, V105S, G106S, W107A
notes: VH dAb
B53: ABT2-65-115 (other)
VH: B35 VH with I20L, V23A, T24A, E30I, N80Y, V109M
notes: VH dAb
B54: ABT2-65-143 (other)
VH: B1 VH with Q98E, L102R, V103L, R104Q, V105R, G106D, W107R
notes: VH dAb
B55: ABT2-65-127 (other)
VH: B35 VH with I20L, T24A, S49T, N80Y, V109M
notes: VH dAb
B56: ABT2-65-155 (other)
VH: B1 VH with R104Q, V105R, G106R, W107K
notes: VH dAb
B57: ABT2-65-119 (other)
VH: B35 VH with I20L, V23A, T24A, E30I, D31A, Q33P, N80Y, V109M
notes: VH dAb
B58: ABT2-65-118 (other)
VH: B35 VH with I20L, V23A, T24A, E30A, D31T, Q33T, N80Y, V109M
notes: VH dAb

Numbering of substitutions follows the chain as printed.

This test has as its target T1, human IL-1β (human, UniProt P01584 117-269).
T1 construct: antigen of the ABT2 dAbs; also called hIL-1β; IL-1 beta
Kind of test: IC50 column of Table 63; receptor binding assay presumed.
B1: the IC50 is 20 nM.

B2 had an IC50 of 5 nM.

In turn, B3 showed a half-inhibitory concentration (IC50) of 5 nM.

The molecule B4 came in with a half-maximal inhibitory concentration (IC50) of 9 nM.

B5: the IC50 was 4.3 nM.

With B6, the IC50 was found to be 8 nM.

In the case of B7, the half-maximal inhibitory concentration (IC50) came to 100 nM.

Regarding B8, the concentration for half-maximal inhibition (IC50) worked out at 30 nM.

B9 showed an IC50 of 300 nM.

B10: the half-inhibitory concentration (IC50) was determined as 10 nM.

Molecule B11 displayed an IC50 of 6 nM.

B12: the IC50 is 20 nM.

In turn, B13 returned an IC50 of 5 nM.

In turn, B14 had an IC50 of 4 nM.

The molecule B15 showed an IC50 of 30 nM.

Molecule B16 had an IC50 of 30 nM.

Turning to B17, the IC50 turned out to be 5 nM.

In the case of B18, the IC50 came to 4.2 nM.

The molecule B19 came in with an IC50 of 6 nM.

For B20, the IC50 turned out to be 50 nM.

Regarding B21, the IC50 amounted to 5 nM.

With B22, the IC50 was 7.5 nM.

In turn, B23 displayed an IC50 of 13.2 nM.

As to B24, the 50% inhibitory concentration (IC50) stood at 30 nM.

As to B25, the IC50 is 4 nM.

For the molecule B26, the IC50 is 300 nM.

In the case of B27, the IC50 was 10 nM.

As to B28, the IC50 is 5 nM.

B29: the IC50 was found to be 4 nM.

B30 showed a concentration for half-maximal inhibition (IC50) of 6 nM.

B31: the concentration for half-maximal inhibition (IC50) worked out at 3.4 nM.

Consider B32, for which the IC50 came out at 30 nM.

With B33, the IC50 was 5 nM.

B34: the 50% inhibitory concentration (IC50) worked out at 4 nM.

B35 displayed an IC50 of 4.3 nM.

Regarding B36, the IC50 worked out at 4 nM.

As for B37, the IC50 was 30 nM.

For B38, the IC50 was found to be 30 nM.

Molecule B39 had an IC50 of 10 nM.

Molecule B40 yielded an IC50 of 20 nM.

B41: the IC50 came to 300 nM.

B42: the IC50 is 3.9 nM.

With B43, the IC50 turned out to be 6 nM.

B44: the IC50 was 5 nM.

Consider B45, for which the IC50 amounted to 60 nM.

Molecule B46 showed an IC50 of 3 nM.

For the molecule B47, the half-maximal inhibitory concentration (IC50) was determined as 20 nM.

Regarding B48, the IC50 was 5 nM.

Regarding B49, the IC50 worked out at 30 nM.

B50 came in with an IC50 of 3.8 nM.

Consider B51, for which the IC50 was 4 nM.

For B52, the IC50 worked out at 5 nM.

As to B53, the IC50 is 4 nM.

Molecule B54 had an IC50 of 5 nM.

B55 registered an IC50 of 5.5 nM.

The molecule B56 yielded an IC50 of 5 nM.

As to B57, the IC50 was found to be 4 nM.

Molecule B58 displayed an IC50 of 4.6 nM.
